Target: human IgG (of human serum; IgG against AAV8 in AAV8 positive human serum pools CP16 and P1) (human)
Assay: cell-based or functional assay

B1: Xork1.3-Fc-HD-H435R (Fc fusion)
chain: MTLWADGVQVDDKDFKPSTENFGTNYLAAEYGIGKGYYDINKKFDGTDDDLCSGVVAANQLHWWLDRNKDYIEKYRQQSKDNGVTIGNTDIFELNKLHDEDQSNFFDFIKKSFGNKFLQPERLLNMYINGYGYLTSQDKAKTSQPSPSKLNFFQKVFKNNLLTDKTPINDIDEFSSQTKNALQNHKVLAVSFASIKNRGLGHVVTVWGADFDENGKVVALYVTDSDDRSKNIGNAKLGMKKLRIEVSAQDSSTIKLTGFEDKNSGGSLRHLYSLSTGEQIWKKYFEETEPKSSDKTHTCPPCPAPELLSSPSVFLFPPKPKDTLMISRTPEVTCVVVDVSHEDPEVKFNWYVDGVEVHNAKTKPREEQYNSTYRVVSVLTVLHQDWLNGKEYKCKVSNKALPAPIEKTISKAKGQPREPQVYTLPPSRDELTKNQVSLTCLVKGFYPSDIAVEWESNGQPENNYKTTPPVLDSDGSFFLYSKLTVDKSRWQQGNVFSCSVMHEALHNRYTQKSLSLSPG
- SEAP levels in passively immunized mice (% lower than in non-immunized controls): 20

Reference: US20240148841A1
